Like-named read-outs stand apart in the source and are kept apart here.

Assay [1] concerns NOXA1. The conditions noted are these: COS cells; cited from earlier work.
Assay [2] relates to SH3 domain of NOXA1. The conditions noted are these: GST pull-downs; cited from earlier work. From the text:
To gain further insight into the molecular basis of complex formation between these two proteins we measured binding of the human and mouse NOXA1-SH3 ...

In assay [3] the target is murine p22^phoxC. The assay is described as follows: ITC, binding to mouse p22phox cytoplasmic domain. On the procedure:
Complex formation between NOXO1, NOXA1 and p22^phox fragments or peptides were measured by isothermal titration calorimetry using a MicroCal VP-ITC calorimeter (MicroCal Inc., Northampton, USA). All proteins were dialysed against ITC buffer (150 mM NaCl, 1 mM DTT and 50 mM HEPES, pH 7.4) and performed at 18°C. All peptides were dissolved in ITC buffer. Typically, 20–40 µM of protein in the cell was titrated by stepwise injections of a total of 200–300 µM of the ligand. Heats of dilution were determined by titrating protein or peptide into ITC buffer and subtracted from the raw ITC data prior to analysis with the software, Origin version 7.0, assuming a single-site binding model. Data were averaged over three to five experiments.
(ITC needs no label: the signal is the heat of the interaction.)

Assay [4] has as its target p67^phox. The conditions noted are these: cited from earlier work. From the text:
The phagocytic oxidase is still the best characterized member of this protein family and consists of a heterodimeric flavocytochrome (containing NOX2 and p22^phox) that makes up the catalytic core of the enzyme plus the cytosolic regulatory subunits p40^phox, p47^phox and p67^phox and the small GTPase Rac, [16]–[18]. Because excessive ROS production is cytotoxic and can induce a number of pathological processes, complicated regulatory mechanisms have evolved that tightly control the activity of the phagocytic oxidase. […] To gain further insight into the molecular basis of complex formation between these two proteins we measured binding of the human and mouse NOXA1-SH3 ... || In the phagocytic oxidase the p47^phox-p67^phox interaction is unusually strong (Kd of 20 nM), [26], due to the presence of two protein interfaces: contacts are made via the conserved PxxPxR motif (at amino acids 363–368), but also via an additional surface composed of residues 369–390 of p47^phox, which fold into a helix-turn-helix (HTH) motif and pack against β-sheets 2, 3 and 4 of SH3B p67^phox. Removal of this additional binding motif reduces the affinity for p67^phox to 20 µM.

B1: NOXO1: NOX organizing protein 1 (protein, UniProt Q8NFA2 1-376, looked up)
NADPH oxidase organizer 1: MAGPRYPVSVQGAALVQIKRLQTFAFSVRWSDGSDTFVRRSWDEFRQLKKTLKETFPVEAGLLRRSDRVLPKLLGQASLDAPLLGRVGRTSRGLARLQLLETYSRRLLATAERVARSPTITGFFAPQPLDLEPALPPGSRVILPTPEEQPLSRAAGRLSIHSLEAQSLRCLQPFCTQDTRDRPFQAQAQESLDVLLRHPSGWWLVENEDRQTAWFPAPYLEEAAPGQGREGGPSLGSSGPQFCASRAYESSRADELSVPAGARVRVLETSDRGWWLCRYGDRAGLLPAVLLRPEGLGALLSGTGFRGGDDPAGEARGFPEPSQATAPPPTVPTRPSPGAIQSRCCTVTRRALERRPRRQGRPRGCVDSVPHPTTEQ
Turning to B1, in assay [1], the “co-immunoprecipitation of NOXO1 and NOXA1” value is “both proteins could be co-immunopricipitated from COS cells”. Further, the “binding to the SH3 domain of NOXA1” value in assay [2] was “failed to bind the SH3 domain of NOXA1”.

B2: Mouse NOXO1 SH3AB–E: tandem SH3 domains plus the C-terminal portion of NOXO1 (mouse) (protein)
chain: QSIPCVQPFHTLDIRDRPFHTKAQEILDILLRHPSGWWLVENKDQQVAWFPAPYLEEVATCQGQESGLALQGSGRQFCTTQAYEGSRSDELSVPSGARVHVLETSDRGWWLCRYNGRTGLLPAMSLQPEGLGSLLGRPGFPDSAGADKVAEDRTIPPVVPTRPCMSAIQSRCCSITRRALGQEQGTRVPR
modifications: left off: GST, end not stated, cleaved
Molecule B2 yielded a Kd in assay [3] (ITC, 18°C, 150 mM NaCl, 1 mM DTT, 50 mM HEPES, pH 7.4, mouse p22^phoxC in syringe, NOXO1 construct in cell, averaged over three to five experiments, NB = no binding) of 780 ± 60 nM. Besides, the ΔH in assay [3] (ITC, 18°C, pH 7.4, mouse p22^phoxC in syringe, NB = no binding) is -7.1 ± 0.05 kcal/mol. The “fold weakening of binding to p22^phox” value in assay [3] (mouse SH3AB–E in comparison to the tandem SH3 domains) is given as “around 10 -fold”.

B3: p47^phox: cytosolic regulatory subunit of the phagocytic NADPH oxidase (protein, UniProt P14598 1-390, looked up)
Neutrophil cytosol factor 1: MGDTFIRHIALLGFEKRFVPSQHYVYMFLVKWQDLSEKVVYRRFTEIYEFHKTLKEMFPIEAGAINPENRIIPHLPAPKWFDGQRAAENRQGTLTEYCSTLMSLPTKISRCPHLLDFFKVRPDDLKLPTDNQTKKPETYLMPKDGKSTATDITGPIILQTYRAIANYEKTSGSEMALSTGDVVEVVEKSESGWWFCQMKAKRGWIPASFLEPLDSPDETEDPEPNYAGEPYVAIKAYTAVEGDEVSLLEGEAVEVIHKLLDGWWVIRKDDVTGYFPSMYLQKSGQDVSQAQRQIKRGAPPRRSSIRNAHSIHQRSRKRLSQDAYRRNSVRFLQQRRRQARPGPQSPGSPLEEERQTQRSKPQPAVPPRPSADLILNRCSESTKRKLASAV
For B3, the Kd is 20000 nM in assay [4] (additional binding motif (residues 369–390 of p47^phox) removed, ref [25], [26], read-out: affinity for p67^phox after removal of additional binding motif) and 20 nM in assay [4] (interaction with C-terminal SH3 domain of p67^phox, ref [25]–[27], read-out: affinity for p67^phox).

The values are drawn from publication PMC2864300, “Regulation of NOXO1 Activity through Reversible Interactions with p22^phox and NOXA1” (PLoS ONE, 2010).
